Earlier results as cited in PMC7153410.
Where two headings read alike, the source gives them in different places. Values belong to the substance of their own block, whether it stands above or below them.

Legend:
RAGE (Homo sapiens) [1] = biological target: RAGE (Homo sapiens) (UniProt Q15109)
MD-2 [2] = biological target: MD-2 (UniProt Q9JHF9)
TLR4-MD-2 (Homo sapiens) [3] = biological target: TLR4-MD-2 (Homo sapiens) (UniProt O00206)
RAGE (Homo sapiens) [4] = biological target: RAGE (Homo sapiens) (UniProt Q15109); remark: listed apart in the source
MD-2 [5] = biological target: MD-2 (UniProt Q9JHF9); remark: listed apart in the source
RAGE (Homo sapiens) [6] = biological target: RAGE (Homo sapiens) (UniProt Q15109); remark: listed apart in the source
TLR4-MD-2 (Homo sapiens) [7] = biological target: TLR4-MD-2 (Homo sapiens) (UniProt O00206); remark: listed apart in the source

UniProt Q15109, sequence (Q15109 23-404): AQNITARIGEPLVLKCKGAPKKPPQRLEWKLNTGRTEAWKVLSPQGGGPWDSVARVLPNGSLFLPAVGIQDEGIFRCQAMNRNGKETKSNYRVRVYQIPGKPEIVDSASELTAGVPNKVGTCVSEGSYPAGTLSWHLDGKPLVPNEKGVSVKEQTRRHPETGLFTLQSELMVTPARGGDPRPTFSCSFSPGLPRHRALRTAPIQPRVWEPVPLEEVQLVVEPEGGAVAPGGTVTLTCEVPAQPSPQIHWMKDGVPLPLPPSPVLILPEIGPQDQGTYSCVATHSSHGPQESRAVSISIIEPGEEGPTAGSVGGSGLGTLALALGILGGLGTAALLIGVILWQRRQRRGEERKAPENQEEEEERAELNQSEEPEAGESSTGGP
UniProt O00206, sequence (O00206 24-839, chain 1 of 2): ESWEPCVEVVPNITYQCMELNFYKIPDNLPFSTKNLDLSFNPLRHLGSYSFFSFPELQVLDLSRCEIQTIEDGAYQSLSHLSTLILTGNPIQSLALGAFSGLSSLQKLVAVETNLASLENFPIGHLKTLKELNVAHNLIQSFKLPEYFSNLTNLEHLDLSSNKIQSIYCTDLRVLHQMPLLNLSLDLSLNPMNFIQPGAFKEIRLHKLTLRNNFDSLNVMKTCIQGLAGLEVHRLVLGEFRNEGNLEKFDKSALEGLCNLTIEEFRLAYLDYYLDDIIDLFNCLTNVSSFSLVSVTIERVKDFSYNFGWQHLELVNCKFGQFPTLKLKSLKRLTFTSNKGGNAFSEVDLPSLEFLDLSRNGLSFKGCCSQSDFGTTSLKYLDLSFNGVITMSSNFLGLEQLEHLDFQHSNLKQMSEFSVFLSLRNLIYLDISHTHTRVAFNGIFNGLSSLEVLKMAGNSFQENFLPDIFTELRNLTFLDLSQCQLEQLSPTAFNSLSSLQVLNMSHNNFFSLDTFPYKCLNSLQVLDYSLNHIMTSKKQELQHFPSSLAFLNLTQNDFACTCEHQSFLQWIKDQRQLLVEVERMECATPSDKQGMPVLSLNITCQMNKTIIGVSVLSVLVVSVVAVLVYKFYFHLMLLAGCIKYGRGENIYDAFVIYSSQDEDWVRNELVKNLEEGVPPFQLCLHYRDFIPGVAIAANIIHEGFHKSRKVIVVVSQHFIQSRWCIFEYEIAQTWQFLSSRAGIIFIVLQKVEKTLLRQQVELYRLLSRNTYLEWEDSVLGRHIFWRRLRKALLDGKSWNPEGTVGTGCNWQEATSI
UniProt O00206, sequence (Q9Y6Y9 19-160, chain 2 of 2, further chain): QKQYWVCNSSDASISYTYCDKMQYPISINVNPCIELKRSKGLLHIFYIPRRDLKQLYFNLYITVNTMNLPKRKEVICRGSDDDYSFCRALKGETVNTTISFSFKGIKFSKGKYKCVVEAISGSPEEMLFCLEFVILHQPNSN
UniProt Q9JHF9, sequence (Q9JHF9 19-160): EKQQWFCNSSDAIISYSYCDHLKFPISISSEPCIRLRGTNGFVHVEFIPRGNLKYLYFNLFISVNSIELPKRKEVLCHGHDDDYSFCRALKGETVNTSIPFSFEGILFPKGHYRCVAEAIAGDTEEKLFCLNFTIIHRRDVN

Kd (RAGE (Homo sapiens) [1]): 90 nM
Substance: S100A12 (from UniProt P80511)

Kd (MD-2 [2]): 730 nM
Substance: S100A8 2-89 (from UniProt P27005)

Kd (TLR4-MD-2 (Homo sapiens) [3]): 3.8 nM
Kd (RAGE (Homo sapiens) [4]): 9.4 nM
Substance: S100A8-S100A9 (from UniProt P05109)

Kd (MD-2 [5]): 30000 nM
Substance: SAA3 43-57 (from UniProt P04918)

Kd (RAGE (Homo sapiens) [6]): 38 nM
Kd (TLR4-MD-2 (Homo sapiens) [7]): 2.1 nM
Substance: S100A9 (from UniProt P06702)
